Experimental data published in PMC4033627 (Biochemistry, 2014).

Assays:
[1] = molecular target: ubiquitin (from a pRSETA plasmid, for isothermal titration calorimetry) (UniProt P0CG48 1-76); experiment: ITC
[2] = molecular target: human ubiquitin (from pGEX-6P1) (human, UniProt P0CG48 1-76); experiment: crystal structure

Kd [1] [µM] | binding result [2] | Binder
10.2 ± 0.6 |  | catalytic domain of Sst2 (residues 245–435), Sst2^cat (domain or fragment) AGTFKIHAYTEGGKPLRTIYLPKLLKKVFLDVVKPNTKKNLETCGILCGKLRQNAFFITHLVIPLQEATSDTCGTTDEASLFEFQDKHNLLTLGWIHTHPTQTCFMSSVDLHTHCSYQLMLPEAIAIVMAPSKNTSGIFRLLDPEGLQTIVKCRKPGLFHPHEGKVYTMVAQPGHVREINSKLQVVDLRVK
 | binds | Sst2^catD354A (Asp354Ala mutant of the catalytic domain of Sst2) (domain or fragment) AGTFKIHAYTEGGKPLRTIYLPKLLKKVFLDVVKPNTKKNLETCGILCGKLRQNAFFITHLVIPLQEATSDTCGTTDEASLFEFQDKHNLLTLGWIHTHPTQTCFMSSVALHTHCSYQLMLPEAIAIVMAPSKNTSGIFRLLDPEGLQTIVKCRKPGLFHPHEGKVYTMVAQPGHVREINSKLQVVDLRVK
3 ± 0.56 |  | Sst2^catE286A (Glu286Ala mutant of the catalytic domain of Sst2) (domain or fragment) AGTFKIHAYTEGGKPLRTIYLPKLLKKVFLDVVKPNTKKNLATCGILCGKLRQNAFFITHLVIPLQEATSDTCGTTDEASLFEFQDKHNLLTLGWIHTHPTQTCFMSSVDLHTHCSYQLMLPEAIAIVMAPSKNTSGIFRLLDPEGLQTIVKCRKPGLFHPHEGKVYTMVAQPGHVREINSKLQVVDLRVK
